According to article PMC11730744:

Tests used:
Orai1β-eGFP [1] = biological target: Orai1β-eGFP (UniProt Q96D31); assay: FRET or BRET; confocal FRET in living WT HEK293 cells co-expressing Orai1 variant-eGFP and STIM-mCherry (CMV promoter); resting (control) cells, medium with 1.8 mM Ca2+; whole cell averages
Orai1β-eGFP [2] = biological target: Orai1β-eGFP (UniProt Q96D31); assay: FRET or BRET; confocal FRET in living WT HEK293 cells co-expressing Orai1 variant-eGFP and STIM-mCherry (CMV promoter); stimulated with 2 µM thapsigargin for 1 min, 1.8 mM extracellular Ca2+; whole cell averages

Chain of UniProt Q96D31 (Q96D31 whole entry): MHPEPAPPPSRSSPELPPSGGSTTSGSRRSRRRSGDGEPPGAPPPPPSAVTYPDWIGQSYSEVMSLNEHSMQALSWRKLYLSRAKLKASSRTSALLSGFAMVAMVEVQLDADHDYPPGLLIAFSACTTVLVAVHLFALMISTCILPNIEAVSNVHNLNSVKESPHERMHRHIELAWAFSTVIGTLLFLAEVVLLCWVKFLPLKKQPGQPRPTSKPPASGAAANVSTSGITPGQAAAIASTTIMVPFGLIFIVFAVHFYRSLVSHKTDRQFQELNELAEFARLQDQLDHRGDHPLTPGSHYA

STIM2-mCherry (from UniProt Q9P246 15-746) (natural protein)
mean nFRET (resting cells) (Orai1β-eGFP [1]): 0.074 | mean nFRET (2 µM TG, 1 min) (Orai1β-eGFP [2]): 0.114
